Reference: patent publication US20130336947

Tests used:
[1] = system: ZF11xHunt-Kox-1 (Artificial); assay: cell_activity
[2] = system: ZF6xHunt-Kox-1 (Artificial); assay: cell_activity; conditions: htt mRNA (up to 2.5-fold); protein up to 2-fold; STHdh Q111/Q111, 20 days
Chain of ZF6xHunt-Kox-1 (Artificial) (chain, as listed by the source): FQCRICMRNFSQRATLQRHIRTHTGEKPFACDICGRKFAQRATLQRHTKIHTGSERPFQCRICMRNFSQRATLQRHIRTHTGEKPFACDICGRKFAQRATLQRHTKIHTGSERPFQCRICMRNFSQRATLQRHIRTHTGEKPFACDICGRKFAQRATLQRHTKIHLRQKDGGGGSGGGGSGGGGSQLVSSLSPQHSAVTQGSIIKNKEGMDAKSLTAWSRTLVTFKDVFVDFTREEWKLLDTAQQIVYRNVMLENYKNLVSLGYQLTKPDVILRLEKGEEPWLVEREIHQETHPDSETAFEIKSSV

Chain of ZF11xHunt-Kox-1 (Artificial) (chain, as listed by the source): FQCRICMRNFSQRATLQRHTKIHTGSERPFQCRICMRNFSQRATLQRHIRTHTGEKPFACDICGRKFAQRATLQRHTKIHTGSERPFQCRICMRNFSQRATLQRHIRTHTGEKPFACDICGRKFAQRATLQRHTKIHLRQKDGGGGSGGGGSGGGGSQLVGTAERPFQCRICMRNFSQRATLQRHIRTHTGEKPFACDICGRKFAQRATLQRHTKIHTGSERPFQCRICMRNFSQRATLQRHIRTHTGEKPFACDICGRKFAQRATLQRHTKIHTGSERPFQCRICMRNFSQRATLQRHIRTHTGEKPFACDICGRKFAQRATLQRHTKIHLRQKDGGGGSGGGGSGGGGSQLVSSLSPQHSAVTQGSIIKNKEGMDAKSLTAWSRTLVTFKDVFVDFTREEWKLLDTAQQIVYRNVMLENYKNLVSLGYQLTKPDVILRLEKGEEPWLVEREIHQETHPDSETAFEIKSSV

Substance	activity (% mRNA reduction) ([1]; AAV2/1 striatal delivery, R6/2 mice, week 6, average)	activity (% mRNA reduction) ([1]; protein reduced 95%, STHdh Q111/Q111, 20 days)	activity (fold repression) [2]
R6/2 mutant HTT transgene	> 45	–	–
STHdh Q111 mutant htt locus	–	80	< 2.5
